We go through one substance from patent US20100062980A1, “THERAPEUTIC USES OF BETA-ANTAGONISTS” (priority 2006, published 2010).

This series has as its system Swiss albino male mice. It is filed as in vivo. Particulars: mouse, in vivo, 2.5 mg/kg. The source says: Swiss albino male mice (˜20 g) were used for the in vivo toxicity study. Male Sprague-Dawley (SD) rats were used for electrocardiogram (ECG) monitoring (3-4 weeks old, ˜80-100 g) and the Langendorff isolated perfused heart experiments (8 weeks old, ˜250 g). Animals were acquired from the university Laboratory Animal Center (LAC) and were acclimatized to the Animal Holding Unit surroundings for at least 3 days prior to the experiments. Animals were kept under standard conditions with food and water available ad lib. All animal experiments were conducted according to the protocol (776/05a) approved by the Institutional Animal Care and Use Committee (IACUC) of the National University of Singapore.
The protein was dissolved in 200 μl of 0.9% NaCl (Braun, Malaysia) and administered through the intra-peritoneal (i.p.) route for the in vivo toxicity study in mice. Intra-tail vein (i.t.v.) administration was done in the ECG monitoring study in rats. The various protein doses were dissolved in 200 μl of 0.9% NaCl solution and injected into the tail vein using a 27 G ½ needle (Becton Dickinson, Franklin Lakes, N.J.) held at an angle of about 10° to the tail. […]
After purification of the protein from snake venom, i.p. doses of 1 mg/kg, 10 mg/kg and 100 mg/kg were administered to healthy male mice (three animals per group) and the symptoms were observed and recorded. […]

As to α-bungarotoxin [reference compound], the symptoms result is “severe paralysis of the hind limbs”.
